{"source": "a protein production outcome set (Wang et al. 2014)", "experiment": "label from the status in PepcDB records", "data": [{"sequence": "MRETLERLLASETFGRSERARKLIRYLVEREQAGEADRLKGFSIAMDVFGKDGDFDPSTDAVVRVQAGRLRELLQQYFANEGIAEPVRIAIPRGGYVPAYELNAIRLPEVAKPAEQAAAAAAPAEHPSAAEDAVAPDASLAPAAAPVPSVARHLRFFWMAIAVVIAMLGVLILRQGSGALLAGGHLPATFESAGLTSSIAPSPVSEALPLVYIAVKASGADAGRIAASLRAGLSGFDTIDFIGRDTVDKTDPVNNPTSFIFDILPGPNTGDITIELQSMASGRVLLSRNLTPADSTPTAIEDRVADMLSSALPASGTIYNYIEQTGTPNGLTECLLLNDKYYLDQNARTHEAAYRCLETLANSGAKSSLVYSELASLQVEAVSDHYVYPPNATIEKAVEFAHRGVQMGPTSPYAHRAYGYVSSRLGNTDEAIRWMRKAYELNPYDLGMAAAYGYGLIFAGRYAEGTPILTHAAETFSGHSTWWDYGLFVGDFMLGDMNKAIAASMALRTTATKSHYLAARLIGAKAAGQDSLVTTLLNELNTKFPKFAADPRSTFVERKYPADLTDRLVQALRAAGLGSAS", "values": [{"measurement": "protein production", "result": "failed"}]}, {"sequence": "MILFSPVARDSAAGQAAALRAPVSLQDDTLKIFGFDDQSVGQPLSGGTDILACLTLFNEPAEAVAGTLAFLAANQDMLASRNGPIQRLEVAIVLDGRDRVHPETEALFNRLGFDLDWGCDPEAAGIGQHGADEAQVRVQTRLIPVDLLTGVSGNPLRVHLAVKDRNRGKLDSHAFFFRSLAERLQPDFVLQIDAGSRPVADCLPALLAQMEREPDCAALATNIVMEDAALTDWLQSWQQADFLWQKLSDWPIGNGLGYLEVVPGQASLLRMSALRRGANGDPLAAYLRGLSRPKSLMEANLFLAEDRIIGAEIVKSHPACTIRYHHDANLVTDGCATVGELLRQRRRWTNSTLVARLVAIGSLADLLWHGRLPPARWCSMALALAWTLLQLLEQWFIPASLALLVSLTSGFWQDEAKNGVAGQGLAWGMATGVLLFWLYCLASMKGREGERSLSRRLHGGLHGLGLGILLACTVLGFAICLVEVGPVIQGAILTVALILGMAVWHHSSRGMSDLLRVFVLYIPSAPVASFYLLSYALANFHDVSWGTKGLVGDIKAVIPAGWRRMRLRLLILWVVSNTALVWLVMGVVPGGAISVLHYACLPVVGQIAIASLLLLSASCRKPVSPSPEVTVRAGSGPHLHR", "values": [{"measurement": "protein production", "result": "failed"}]}, {"sequence": "MSVVDPSLIERIIRDDVRAMGAYHVPDSHGLVKLDAMENPYRLPPALRSELAARLGEVALNRYPVPSSEALRAKLKEVMQVPAGMEVLLGNGSDEIISMLALAAARPGAKVMAPVPGFVMYAMSAQFAGLEFVGVPLRADFTLDRGAMLAAMAEHQPAIVYLAYPNNPTGNLFDAADMEAIVRAAQGSVCRSLVVVDEAYQPFAQESWMSRLTDFGNLLVMRTVSKLGLAGIRLGYVAGDPQWLEQLDKVRPPYNVNVLTEATALFALEHVAVLDEQAAQLRAERSRVAEGMAAHGGVTVFPSAANFLLARVPDAAQTFDRLLARKVLIKNVSKMHPLLANCLRVTVSTPEENAQFLEAFAASLQD", "values": [{"measurement": "protein production", "result": "not failed"}]}, {"sequence": "MTNHEQVLTDYLAAFIEELVQAGVKEAIISPGSRSTPLALMMAEHPTLKIYVDVDERSAGFFALGLAKASKRPVVLLCTSGTAAANYFPAVVEANLSQIPLIVLTADRPHELRNVGAPQAMDQLHLYGSHVKDFTDMALPENSDEMLRYAKWHSSRAVDIAMKTPRGPVHLNFPLREPLVPILEPSPFTATGKKHHHVH", "values": [{"measurement": "protein production", "result": "failed"}]}, {"sequence": "MLYSSDLLAIVGAGEQASLSPRRLCLFKTTTGLPLRELNFLTSILAVRMNKKRLVVVLLEKTFVYDLNTLVMLDTIDTVPNPKGLSAFSPSLEGCYLAVPASTTKGSVLVYNVMDLQSHSEIDAHRSPLAAIALSSNGMYIATGSEQGTLIRVHLVSEATKSYSFRRGTYPSTIYSLSFGPSTQLPDILIATSSSGSIHAFSLSLAINQRSKRSTSFLGSVLPDSVSDALDPAHHHVLQNAVSSGIRSYAVVRKIDKLEGTSSPSHFTSLRATVSVITYNGYFQEYTLSINNKNESLWTLEREFNLFSITTG", "values": [{"measurement": "protein production", "result": "failed"}]}, {"sequence": "MLWRPVGHGVEALYLATPLGRRVGYGVYVYRYRGLLVDTGPPKARPFAPEAALLTHAHEDHAGGAFRLGLPVYGSALTAALVAAPKPLRLYRRLVWGSPRPAQVEVAERVGPLHLLPTPGHAPDHVALYDPEAGLFFGGDLFLGVRASLATPGFDLQALLQSLRRALALKPRAFYCAHAGPLQAPLEALQAKLDFLEGKREEALRLKARGLTPKEALRRLFGGESPLALLSGGEMSRLAFVEALMMEP", "values": [{"measurement": "protein production", "result": "failed"}]}, {"sequence": "MERSEEEIENLWKLQSEVKQRSESVKSIITELEIERGTLKVRALKLKEDSDVLTTWVEMNYLKLTSMDMGRIEEMFEIESEVEGLAGDDAIEDVLRVLEEAAERGELEIGSYLKQVRVLAREQFFLKHLSSFKTQNFHI", "values": [{"measurement": "protein production", "result": "failed"}]}, {"sequence": "MGNMISAVVAAAGRGSRMMRDMAELGLEPVHKLLLPLNGVTVIEATVKAVLSAGVDECIVVTGHRAGEVEEALSGMDVRVVRNDPVDVPLSASLLRGVRAAGGDIILCAAGDQPAVSPATLRRIAEHADGSTVSILARGESGWLDNARGIGMPLAAGADLLRDYLPLGDGNINPLLWMMLEDGVRLYGVEASRPIELVNINHYSDYLRIRDHFLRTNADGN", "values": [{"measurement": "protein production", "result": "failed"}]}, {"sequence": "MFVSHGAIVKSAPKHWNGSKCPIRMQVRVPDPDRRSLLRAGAHIILGGLLATVIPGTSPSIAKIREKPTDKGEEAPKIDDEKELDKYVSGLKYEEELYENPDPAEKEVYRTPRVEREPEYKKKEDEILEKESKVLKEEAREAARESEVLRQEFEKR", "values": [{"measurement": "protein production", "result": "not failed"}]}, {"sequence": "MEREEIIERFLKFFREYAEEGEEPLYMGKIKDLLTITPKRSIVINWMHLNSYDPELAEEVIENPEECILAAEDAIQIILKEDFLREDVPKIHARFHNLPKTLMVKEVGAEHINKLIQVEGVVTRVTEIKPFVSVAVFVCKDCGHEMVVPQKPYEGFVAVKKCEQCGSKNVQLDVEKSKFVNFQMFRIQDRPESLRGGQMPRFIDGILLDDIVDTAMPGDRVIVVGILRVIQEKREKVPTFKKVIEVNHIEPISKELEELEISPEDEQKIRELAKRKDIVSAIVDSIAPAIYGYKEVKKGIALALFGGVSRTLPDGTRLRGDIHVLLVGDPGVAKCVDYDTEVLLGDGRKRKIGEIVEEAIKKAEKEGKLGRVDDGFYAPINLELYALDVRTLKVRKVKADIAWKRTTPEKMLRIRTKRGREIRVTPTHPFFTLEEGRIKTKKAYELKVGEKIATPREEAPEAEIFWDEVVEIEEYKPNNSWVYDLQVPEHHNFIANGIFVHNSQLLRYVANLAPRAIYTSGKSSSAAGLCVAPDTLINTDNGRVEIGKFVEEWMKEVGEISEEGISYAPCFRKVETFKDGKIVESPIRRVWKLRAPKKLVRIKTENGRSIALTRETKLLTINDGELSWVEAGEVKVGTYVGTVKSEKDVIPGAGKTIRDVSKLYNMEMEVKDYLTREEVRKAIEKLEEIMNPMNIKIPGVQESYEELLRKLETTNDERVRNETLILLSDVSDAHELAKEKIEKIKEIVNSEVHWEKVTEVGEVDGVEYVYDLTVEGSHNFVANGFIVHNTAAVVRDEFTGGWVLEAGALVLADGGYALIDELDKMSDRDRSVIHEALEQQTISLSKAGITATLNARTTVIAAANPKHGRFNRMKRVSEQIDLPPTLLSRFDLIFVLMDEPDEKVDSEIARHILKVRRGESEVVTPKIPHELLRKYIAYARKNIHPVISEEAMEEIEKYYVKMRRSAKKSSGDEIKPIPITARQLEALIRLSEAHARMRLSPIVTREDAREAIKLMEYTLKQIAVDEAGQLDVTILEVGQSARKLSKVERILDIVEKLERTSEKGAKIDDILEEAAKFGIEKSEAREILEKLLEKGQIYMPENGYYKTV", "values": [{"measurement": "protein production", "result": "failed"}]}, {"sequence": "MRIDKFLQSVGLVKRRVLATDMCNVGAVWLNGSCAKASKEVKAGDTISLHYLKGIEEYTILQIPALKNVPRKDTHLYIAPKTKE", "values": [{"measurement": "protein production", "result": "failed"}]}, {"sequence": "MEDAAEQERGFHVITIRKQIVTAALPLQDHWLPLSNLDLLLPPVQISVCFCYKKPRHFLSVAETLKASLAEALVSYYAFAGELVKNSSGEPEILCNNRGVDFLEAVADVELRELNLHDPDESIAKLVPKKKHGVIAIQVTQLKCGSIVVGCTFDHRIADAFSMNMFLVSWAEISRFNAPISSVPSFRRSILNPRRPLIIDSSIDKMYMPVTSLPLPQETTNDLDNILTSRIYYIKENALEDLQTLASGSSPKTGYGQRTKLESFSAFLWKLVAKHTGRDLVSNKNSKMGIVVDGRRRLMEKEDNTYFGNVLSIPFGGQSIDDLIDKPLSWVTNEVHRFLEEAVTKEHFLNLIDWVEIHRPIPAVSRIYSTGTDDGPAFVVSSGRSFPVNKVDFGWGLPVFGSYHFPWEGSSGYVMPMPSPVDDGNGDWVVYLHLTKGQLKFIEEEASHVLKPIDNYYLKINTIN", "values": [{"measurement": "protein production", "result": "failed"}]}, {"sequence": "MEGKTLIVSVLIMSLFMAQNQVDANICCPSIQARTFYNACLFAVGSPSSCIRNSSCLDISESTCPRGYTNDILENTGDAVTEYCKLGCVSSVCGALTILQNSDASEIVNGEVEKCTMACSTVCTKGSMNAVENA", "values": [{"measurement": "protein production", "result": "failed"}]}, {"sequence": "MAPACTTVHRRRAPLAAVLMLSLLPVLSPHADAAQVPWHSRTFKYVADNKDLKEVLRDLSASQSIATWISPEVTGTLSGKFETSPQKFLDDLAATYGFVWYYDGAVLRIWGANESKSATLSLGTASTKSLRDALARMRLDDPRFPVRYDETAHVAVVSGPPGYVDTVSAIAKQVEQGARQRDATEVQVFQLHYAQAADHTTRIGGQDVQIPGMASLLRSMYGARGAPVAAIPGPGANFGRVQPIGGGSSNTFGNAAQGQGGGASGILGLPSSWFGGASSSDRVPVSPPLPGSGTAATAGSPASVWPELSKGRRDESTPIDAGGGAELASDAPVIEADPRTNTILIRDRPERMQSYGTLIQQLDNRPKLLQIDATIIEIRDGAMQDLGVDWRFHSQHTDIQTGNGSGGQLGFNGALSGAATDGATTPAGGTLTAVLGDAGRYLMTRVSALETTNKAKIVSSPQVATLDNVEAVMDHKQQAFVRVSGYASADLYNLSAGVSLRVLPSVVPGSPNGQMRLDVRIEDGQLGSNTVDGIPVITSSEITTQAFVNEGQSLLIAGYAYDADETDLNAVPGLSKIPLLGNLFKHRQKSGSRMQRLFLLTPHVVSP", "values": [{"measurement": "protein production", "result": "failed"}]}, {"sequence": "MYLKHFGLGQAPFSLTPNTGFFFGLSPHVEALQVLQTALQTGEGFIKVTGEVGTGKTLICRKLINELPQGFHCAYLPNPYLTPAELRWAVANELGLKYTSEIDQQQLTGLIQQQLLALSTHGHAIVLVLDEAQALPDESLEALRLFTNLETESRKLLQVVLFGQPELDERLKRQAFRQLRQRITFSYNLRPLTWDETDAYIRYRLAVAGHAGQALFSPKITRKIAQASRGIPRLINILAHKALMLSFGEGATQVRMSHLKGAICDTEDASPTRVQKWSTYFAIAFMVFAVAMLALLLSGTNFLQWWGDGA", "values": [{"measurement": "protein production", "result": "failed"}]}, {"sequence": "MMIMKRLLFLVSVCSLCMVGNSQNYQPEKHAVVKSDRGDGRLLSTYAIVHEMLKDTHPQYAYRSGMSAQEFTQWQDGVRAAMVEIMKFPEIKRQPSPVCVKTEKKEGYILEKWEFYPFPKSVSTFLVLKPEHLKGAVPGVLCIPGSGRTKEGLVGEPGICDKLTEDYNNPKVSMALNMVKEGYVAVAVDNAAAGEASDLECYDKGWNYDYDVVSRFLLELGWSWLGYTSYLDMQVLNWMKAQSYIRKDRIVISGFSLGTEPMMVLGVLDKDIYAFVYNDFLCQTQERAVVMTKPDKENRRPFPNSIRHLIPGYWRYFNFPDVVASLAPRPIIFTEGGLDRDFRLVQSAYAASGKPENAEFHHYPKFADKAVRKDVEHLDEGLDSKTYFEAVNVDPPSHYFKNELVIPWLRKVLK", "values": [{"measurement": "protein production", "result": "failed"}]}, {"sequence": "TSAGWVSVAIGPLPLRCWWSPPAGCRRDIDNISIENRAYIVLPEVFGVNAWVRSVADRLAAQGIPALAVPLFARTAPELELAYESCDLAQGRAHKDATTASQILSDVSAAVAWLQQRCPNAAIDLAGFCFGGHAALLAATLPQIRHSFDFYGAGVSRMRPGGGAPSLELLPQVSGQLTCVCGSADPLIPEEDRTTIRSALAAADPSGKRMSYIEIDGVDHGFMCEARGSFDADASALGWQLMLA", "values": [{"measurement": "protein production", "result": "failed"}]}]}
